Reference: patent US20040219558, “Novel compositions with polymerase activity” (MJ Bioworks Incorporated, published 2004)

Molecular target: T1, Pfu DNA polymerase (Pyrococcus furiosus, UniProt P61875 SEQ:1-775)
T1 sequence: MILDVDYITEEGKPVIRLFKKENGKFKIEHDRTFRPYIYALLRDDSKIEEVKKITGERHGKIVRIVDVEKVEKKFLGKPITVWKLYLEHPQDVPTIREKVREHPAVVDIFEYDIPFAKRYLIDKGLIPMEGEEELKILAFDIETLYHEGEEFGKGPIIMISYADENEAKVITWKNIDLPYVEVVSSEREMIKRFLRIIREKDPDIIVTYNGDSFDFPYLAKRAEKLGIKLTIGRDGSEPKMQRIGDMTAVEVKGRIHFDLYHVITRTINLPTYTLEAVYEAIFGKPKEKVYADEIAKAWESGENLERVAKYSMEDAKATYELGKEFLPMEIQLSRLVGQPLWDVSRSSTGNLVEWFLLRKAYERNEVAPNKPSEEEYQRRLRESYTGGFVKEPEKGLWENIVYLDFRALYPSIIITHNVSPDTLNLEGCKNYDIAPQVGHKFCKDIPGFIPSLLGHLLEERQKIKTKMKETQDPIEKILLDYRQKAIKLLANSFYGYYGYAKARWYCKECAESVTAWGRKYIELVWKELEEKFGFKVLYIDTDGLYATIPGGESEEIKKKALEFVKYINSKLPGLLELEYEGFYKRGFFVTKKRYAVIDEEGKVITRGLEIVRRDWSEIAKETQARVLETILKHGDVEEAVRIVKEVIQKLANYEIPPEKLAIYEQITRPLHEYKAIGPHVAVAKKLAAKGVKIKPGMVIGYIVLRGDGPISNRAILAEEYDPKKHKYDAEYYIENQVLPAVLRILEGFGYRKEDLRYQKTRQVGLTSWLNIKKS
Experiment: 3'-5' exonuclease fluorescence assay, 65 C; high exonuclease activity
Conditions: tags: Stratagene (commercial); label: 5'-FAM, 3'-dabcyl; hairpin, 16 bp stem with 3' T:T* mismatch and 5' unpaired poly-T
Protocol: The oligonucleotide was combined with buffer and the enzyme and incubated in a real time detection instrument, the DNA Engine Opticon System (MJ Research, Inc.). This instrument excites the FAM and detects any fluorescence if present. In the absence of 3′ to 5′ exonuclease activity, there is only background fluorescence because FAM is quenched by DAB. However if the enzyme does have 3′ to 5′ exonuclease activity, the T:T* mismatch is recognized and the 3′-T* is removed. The DAB is released and will no longer quench the FAM fluorescence. The Opticon System will detect the increase in fluorescence with increasing time (readings were taken every 10 sec at 65° C.). The rate of fluorescence increase directly reflects the amount of 3′ to 5′ exonuclease activity. […] The results (FIG. 3) of this analysis are discussed below.

B1: FAM/dabcyl hairpin exonuclease substrate (structured_DNA)
DNA: TTTTTTGAGGTGTGTCCTACACAGCGGAGTGTAGGACACACCTCT
modifications: 3' terminal T is amino-link dT carrying dabcyl
  binding result: binds
